# Measurements published in paper PMC3204800.
# Columns and labels:
# [1] = target: Third plant homeodomain (PHD3) finger of MLL, residues 1565-1627 (human) (UniProt Q03164); test: ITC
# Cyp33 RRM domain = Cyp33 RRM domain (human, UniProt Q9UNP9 1-90); test: NMR
# Cyp33 RRM domain, sequence (Q9UNP9 1-90): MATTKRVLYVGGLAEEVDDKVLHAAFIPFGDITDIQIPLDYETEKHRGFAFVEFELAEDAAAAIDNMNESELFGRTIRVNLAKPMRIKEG
# Third plant homeodomain (PHD3) finger of MLL, residues 1565-1627 (human), sequence (Q03164 1565-1627): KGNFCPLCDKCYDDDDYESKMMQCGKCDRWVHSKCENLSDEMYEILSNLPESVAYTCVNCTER
molecule,measurement,setting,value
Cyp33 RRM domain F49A mutant (from UniProt Q9UNP9 1-90) (domain or fragment),fold reduction of affinity against the wild type,[1],35 fold
"RRM domain of human Cyclophilin 33 (Cyp33), residues 1-90 (from UniProt Q9UNP9 1-90) (domain or fragment)",Kd,[1],1900 nM
same,dH,[1],-10 kcal
Cyp33 RRM domain L39A mutant (from UniProt Q9UNP9 1-90) (domain or fragment),fold reduction of affinity against the wild type,[1],10 fold
AAUAAA (ssRNA) [AAUAAA RNA],Kd,Cyp33 RRM domain,198 ± 11 µM
